From article PMC4869175, “Evidence that phytochrome functions as a protein kinase in plant light signalling” (Nature Communications, 2016) come the findings set out here.

Changes are numbered by the printed parent chain.

To fix the notation:
T1: AsphyA T418D, full length (Avena sativa, UniProt P06593 1-1129, T418D, phycocyanobilin chromophore assembled)
T1 construct: Avena sativa phytochrome A, full length, with T418D; source: phycocyanobilin added in vitro
T1 sequence (looked up): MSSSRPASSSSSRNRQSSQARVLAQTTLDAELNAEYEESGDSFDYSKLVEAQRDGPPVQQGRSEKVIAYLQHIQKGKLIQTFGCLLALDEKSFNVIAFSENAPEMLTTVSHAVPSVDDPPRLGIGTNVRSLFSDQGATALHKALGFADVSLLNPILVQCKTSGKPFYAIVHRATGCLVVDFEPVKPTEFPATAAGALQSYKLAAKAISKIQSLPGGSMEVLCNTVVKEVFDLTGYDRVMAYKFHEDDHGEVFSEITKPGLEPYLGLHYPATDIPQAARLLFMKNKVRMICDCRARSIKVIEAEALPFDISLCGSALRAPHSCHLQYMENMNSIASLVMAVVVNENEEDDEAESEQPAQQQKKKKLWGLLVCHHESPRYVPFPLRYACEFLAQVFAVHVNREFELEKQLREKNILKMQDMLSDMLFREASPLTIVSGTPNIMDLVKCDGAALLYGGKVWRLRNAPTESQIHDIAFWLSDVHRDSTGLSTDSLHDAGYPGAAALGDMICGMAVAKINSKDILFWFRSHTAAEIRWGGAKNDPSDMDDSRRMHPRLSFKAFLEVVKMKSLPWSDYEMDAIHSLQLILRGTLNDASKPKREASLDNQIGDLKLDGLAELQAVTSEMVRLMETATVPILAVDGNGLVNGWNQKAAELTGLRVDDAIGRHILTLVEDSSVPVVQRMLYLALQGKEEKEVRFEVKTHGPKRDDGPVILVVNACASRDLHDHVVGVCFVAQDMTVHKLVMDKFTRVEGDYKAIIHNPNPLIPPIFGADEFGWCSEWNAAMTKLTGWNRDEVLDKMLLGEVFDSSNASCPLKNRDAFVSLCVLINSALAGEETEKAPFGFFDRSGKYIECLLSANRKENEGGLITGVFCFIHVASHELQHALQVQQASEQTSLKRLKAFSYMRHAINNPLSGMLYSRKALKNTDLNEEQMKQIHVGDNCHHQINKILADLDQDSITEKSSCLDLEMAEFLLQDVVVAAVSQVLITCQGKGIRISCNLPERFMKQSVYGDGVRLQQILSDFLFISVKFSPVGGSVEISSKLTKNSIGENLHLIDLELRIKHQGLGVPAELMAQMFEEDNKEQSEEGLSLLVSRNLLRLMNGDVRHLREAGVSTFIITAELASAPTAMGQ

T2: AsphyA K411L, full length (Avena sativa, UniProt P06593 1-1129, K411L, phycocyanobilin chromophore assembled)
T2 construct: Avena sativa phytochrome A, full length, with K411L; source: phycocyanobilin added in vitro
T2 sequence (looked up): T1 sequence (looked up) with K411L, D418T

B1: GST/strep-fused FHL (natural protein, UniProt A8MR65 1-201, looked up)
chain: MDDADKSCSPSLDHSDINDPMIVAVESLDTSKKRKLHAEESDLLPLPKHFCSEHQASLVNSSCPSSVIDYAECSYAMENTKTSDEASSSASFTGPSLYMFKDSIYSTGSSSSGYAATSSIEQCFSKVDHKTQEDTQDFTHMEFIYHDSEFAVEDLQEVLNPVESYILSSARWSVSNQDSKEATTKPTIDQEFEQYFSTLMM
notes: FHL, which with FHY1 takes part in the nuclear localization of phyA; not shown: GST, N-terminal, kept
B2: GST/strep-fused PIF3 (natural protein, UniProt O80536 1-524, looked up)
chain: MPLFELFRLTKAKLESAQDRNPSPPVDEVVELVWENGQISTQSQSSRSRNIPPPQANSSRAREIGNGSKTTMVDEIPMSVPSLMTGLSQDDDFVPWLNHHPSLDGYCSDFLRDVSSPVTVNEQESDMAVNQTAFPLFQRRKDGNESAPAASSSQYNGFQSHSLYGSDRARDLPSQQTNPDRFTQTQEPLITSNKPSLVNFSHFLRPATFAKTTNNNLHDTKEKSPQSPPNVFQTRVLGAKDSEDKVLNESVASATPKDNQKACLISEDSCRKDQESEKAVVCSSVGSGNSLDGPSESPSLSLKRKHSNIQDIDCHSEDVEEESGDGRKEAGPSRTGLGSKRSRSAEVHNLSERRRRDRINEKMRALQELIPNCNKVDKASMLDEAIEYLKSLQLQVQIMSMASGYYLPPAVMFPPGMGHYPAAAAAMAMGMGMPYAMGLPDLSRGGSSVNHGPQFQVSGMQQQPVAMGIPRVSGGGIFAGSSTIGNGSTRDLSGSKDQTTTNNNSNLKPIKRKQGSSDQFCGSS
notes: Probably Arabidopsis PIF3, as PIF1 and PIF4 are called Arabidopsis; not shown: GST, N-terminal, kept
B3: GST/strep-fused FHY1 (far-red elongated hypocotyl 1) (natural protein, UniProt Q8S4Q6 1-202, looked up)
chain: MPEVEVDNNNEKPSEINSFHHMIISSSKNVLKMEEVEVSKKRKFQTDQSDELSLLPLSKHTCFANVACSENTNGNSEIDTEYSMSSYVNSTTSMECNNDIEMKEESSGSCGEDKMISFESHLDYIYGTQNLEDFSEKVIENILYLDEQEEEEEDAKGCSSNAAKFVLSSGRWTVNQDDSTLHETKKPTIDQEFEQYFSTLML
notes: FHY1 (far-red elongated hypocotyl 1); not shown: GST, N-terminal, kept

The target in one assay is T1, AsphyA T418D, full length. Kind of assay: pull-down; GST/strep-fused interacting protein (1.0 μg) held on glutathione resin, phytochrome (1.0 μg) in solution, Pr and Pfr forms both tested; 60 min at 4 °C in pull-down buffer (100 mM Tris-HCl pH 7.8, 1 mM EDTA, 150 mM NaCl, 100 μg/ml BSA); western blot with oat22 and anti-GST. The conditions noted are these: both partners purified. In general terms: Immunoblotting shows a protein as a band on a membrane.
As for B1, the binding result is reported as “binds”.
Take B2: the binding result is recorded as “binds”.
In the case of B3, the binding result is “binds”.

For the next assay, the target named is T2, AsphyA K411L, full length. The description is as above. The note with it: both partners purified.
As to B1, the binding result is “binds”.
Regarding B2, the binding result is given as “binds”.
For B3, the binding result is “binds”.
